According to IntAct's records for PubMed 9502724:

B1: Protein mothers against dpp (Drosophila melanogaster (Fruit fly)), P42003 (parent)
chain: MDTDDVESNTSSAMSTLGSLFSFTSPAVKKLLGWKQGDEEEKWAEKAVDSLVKKLKKRKGAIEELERALSCPGQPSKCVTIPRSLDGRLQVSHRKGLPHVIYCRVWRWPDLQSHHELKPLELCQYPFSAKQKEVCINPYHYKRVESPVLPPVLVPRHSEFAPGHSMLQFNHVAEPSMPHNVSYSNSGFNSHSLSTSNTSVGSPSSVNSNPNSPYDSLAGTPPPAYSPSEDGNSNNPNDGGQLLDAQMGDVAQVSYSEPAFWASIAYYELNCRVGEVFHCNNNSVIVDGFTNPSNNSDRCCLGQLSNVNRNSTIENTRRHIGKGVHLYYVTGEVYAECLSDSAIFVQSRNCNYHHGFHPSTVCKIPPGCSLKIFNNQEFAQLLSQSVNNGFEAVYELTKMCTIRMSFVKGWGAEYHRQDVTSTPCWIEIHLHGPLQWLDKVLTQMGSPHNAISSVS
B2: Mothers against decapentaplegic homolog (Drosophila melanogaster (Fruit fly)), O62609 (parent)
chain: MGGGSGACPPAHMYGAVAPQDIIVRDMVQMPPPPSNAPTSADACLSIVHSLMCHRQGGESEGFAKRAIESLVKKLKEKRDELDSLITAITTNGAHPSKCVTIQRTLDGRLQVAGRKGFPHVIYARIWRWPDLHKNELKHVKYCAFAFDLKCDSVCVNPYHYERVVSPGIDLSGLSLQSGPSRLVKDEYSAGPLVGSMDIDGNDIGTIQHHPTQMVGPGGYGYPQGPSEYVGDANPMSAMFPTGRTIPKIEPQDGVAGSRGSWMVPPPPRLGQPPQQQQQQPQQQTPQPTQQQQAQSQAAAHSLPVPHGMPGMPGPMNPGPVMAPPPPPQQAQNPQGNGVHHTQANSPTDPASALAMQQQQQQQQQQQQQQQQQQQQSGGVPNGSVNAGGGAAAGGQYYGQPPPVSQMQGAGGGGTSVAPSVHAQQNGYVSQPGSAGSAPVGGGGVFGTAQPTPQQPQQPPTGVQANTGSAGAQAGAGGGAAGTWTGPNTLTYTQSMQPPDPRSLPGGFWNSSLSGDLGSPQQTPPQQQQQQQQPRLLSRQPPPEYWCSIAYFELDTQVGETFKVPSAKPNVIIDGYVDPSGGNRFCLGALSNVHRTEQSERARLHIGKGVQLDLRGEGDVWLRCLSDNSVFVQSYYLDREAGRTPGDAVHKIYPAACIKVFDLRQCHQQMHSLATNAQAAAAAQAAAVAGVANQQMGGGGRSMTAAAGIGVDDLRRLCILRLSFVKGWGPDYPRQSIKETPCWIEVHLHRALQLLDEVLHAMPIDGPRAAA

Variants of: B1
Details: with Med, O62609

effect of a mutation on the interaction | Variant
disrupting interaction strength | S452A;S453A;S455A

Variants of: B2
Details: with mad_drome Mad, P42003

effect of a mutation on the interaction | Variant
disrupting interaction strength | G727D
with no effect | C99S
